Earlier results in PMC12520553.
Where two headings read alike, the source gives them in different places. Values belong to the substance of their own block, whether it stands above or below them.

Experiments:
[1] = target: RAGE (Homo sapiens) (UniProt Q15109)
[2] = target: sRAGE ECD (Homo sapiens) (UniProt Q15109); experiment: MST
[3] = target: S100B (Homo sapiens) (UniProt P04271); experiment: SPR
[4] = target: Aβ40 Aβ40 (Homo sapiens) (UniProt P05067)
[5] = target: Aβ1-40 Aβ1-40 (Homo sapiens) (UniProt P05067)
[6] = target: Aβ42 Aβ42 (Homo sapiens) (UniProt P05067)
[7] = target: S100A8 (Homo sapiens) (UniProt P05109); experiment: SPR
Sequence of S100A8 (Homo sapiens) (P05109 whole entry): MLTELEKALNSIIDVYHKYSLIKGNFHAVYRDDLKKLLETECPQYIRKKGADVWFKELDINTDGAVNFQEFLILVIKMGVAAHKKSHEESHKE

[8] = target: S100A9 (Homo sapiens) (UniProt P06702); experiment: SPR
Sequence of S100A9 (Homo sapiens) (P06702 whole entry): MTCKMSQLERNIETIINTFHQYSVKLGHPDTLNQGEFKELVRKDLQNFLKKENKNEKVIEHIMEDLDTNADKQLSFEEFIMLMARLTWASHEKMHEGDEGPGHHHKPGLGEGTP

[9] = target: fructose-BSA (Bos taurus) (UniProt P02769); experiment: SPR
Sequence of fructose-BSA (Bos taurus) (P02769 25-607): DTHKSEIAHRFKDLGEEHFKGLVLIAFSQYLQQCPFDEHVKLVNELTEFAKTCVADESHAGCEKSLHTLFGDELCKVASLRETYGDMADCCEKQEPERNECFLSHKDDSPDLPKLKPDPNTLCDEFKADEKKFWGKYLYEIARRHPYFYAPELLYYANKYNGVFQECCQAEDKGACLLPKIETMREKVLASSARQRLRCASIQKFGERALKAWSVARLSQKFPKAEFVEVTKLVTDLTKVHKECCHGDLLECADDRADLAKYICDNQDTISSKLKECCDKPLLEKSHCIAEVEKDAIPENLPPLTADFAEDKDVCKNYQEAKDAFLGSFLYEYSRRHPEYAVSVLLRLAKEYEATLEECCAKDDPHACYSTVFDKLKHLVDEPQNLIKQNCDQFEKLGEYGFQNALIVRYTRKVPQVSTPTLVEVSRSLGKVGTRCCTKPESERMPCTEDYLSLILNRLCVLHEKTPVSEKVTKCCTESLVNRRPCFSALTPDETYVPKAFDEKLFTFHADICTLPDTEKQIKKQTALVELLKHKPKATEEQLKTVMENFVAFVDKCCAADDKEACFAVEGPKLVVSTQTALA

[10] = target: glucose-BSA (Bos taurus) (UniProt P02769); experiment: SPR
Sequence of glucose-BSA (Bos taurus) (P02769 25-607): as above

[11] = target: S100A13 (Homo sapiens) (UniProt Q99584); experiment: ITC
Sequence of S100A13 (Homo sapiens) (Q99584 whole entry): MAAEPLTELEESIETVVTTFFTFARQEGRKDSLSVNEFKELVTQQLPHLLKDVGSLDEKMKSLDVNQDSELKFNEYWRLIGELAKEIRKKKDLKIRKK

[12] = target: Aβ Aβ (Homo sapiens) (UniProt P05067)
[13] = target: Aβ40 Aβ40 (Homo sapiens) (UniProt P05067); remark: listed apart in the source
[14] = target: S100A5 (Homo sapiens) (UniProt P33763)
Sequence of S100A5 (Homo sapiens) (P33763 whole entry): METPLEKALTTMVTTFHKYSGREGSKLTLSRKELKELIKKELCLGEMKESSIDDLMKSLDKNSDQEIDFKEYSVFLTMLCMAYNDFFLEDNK

[15] = target: C1q (Homo sapiens) (UniProt P02745); experiment: SPR
Sequence of C1q (Homo sapiens) (P02745 23-245, chain 1 of 3): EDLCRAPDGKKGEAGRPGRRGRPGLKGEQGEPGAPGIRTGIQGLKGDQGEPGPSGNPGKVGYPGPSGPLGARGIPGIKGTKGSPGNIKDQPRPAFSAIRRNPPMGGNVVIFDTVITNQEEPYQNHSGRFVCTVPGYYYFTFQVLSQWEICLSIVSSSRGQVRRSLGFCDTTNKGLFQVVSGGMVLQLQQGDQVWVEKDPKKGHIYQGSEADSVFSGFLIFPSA
Sequence of C1q (Homo sapiens) (P02746 28-253, chain 2 of 3, further chain): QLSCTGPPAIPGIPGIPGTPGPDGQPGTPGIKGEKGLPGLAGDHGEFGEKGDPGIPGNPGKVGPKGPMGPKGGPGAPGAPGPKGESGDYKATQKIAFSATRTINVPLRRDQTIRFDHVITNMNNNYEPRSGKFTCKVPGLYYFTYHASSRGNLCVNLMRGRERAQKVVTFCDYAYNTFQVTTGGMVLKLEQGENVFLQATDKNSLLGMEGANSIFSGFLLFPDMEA
Sequence of C1q (Homo sapiens) (P02747 29-245, chain 3 of 3, further chain): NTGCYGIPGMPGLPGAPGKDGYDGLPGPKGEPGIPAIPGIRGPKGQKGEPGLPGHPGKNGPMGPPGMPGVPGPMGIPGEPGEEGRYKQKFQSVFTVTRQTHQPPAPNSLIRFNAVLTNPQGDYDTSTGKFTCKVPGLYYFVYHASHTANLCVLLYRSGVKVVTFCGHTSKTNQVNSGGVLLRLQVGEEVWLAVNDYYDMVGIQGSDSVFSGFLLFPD

[16] = target: HMGB1 (Homo sapiens) (UniProt P09429); experiment: SPR
Sequence of HMGB1 (Homo sapiens) (P09429 whole entry): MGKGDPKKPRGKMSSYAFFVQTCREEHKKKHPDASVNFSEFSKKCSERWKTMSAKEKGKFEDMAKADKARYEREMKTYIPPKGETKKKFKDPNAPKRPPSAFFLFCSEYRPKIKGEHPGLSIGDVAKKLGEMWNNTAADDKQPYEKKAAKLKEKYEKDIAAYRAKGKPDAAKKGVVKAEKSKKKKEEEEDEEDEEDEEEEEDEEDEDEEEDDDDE

[17] = target: S100A6m (Homo sapiens) (UniProt P06703); experiment: ITC
[18] = target: S100P (Homo sapiens) (UniProt P25815); experiment: ITC
Sequence of S100P (Homo sapiens) (P25815 whole entry): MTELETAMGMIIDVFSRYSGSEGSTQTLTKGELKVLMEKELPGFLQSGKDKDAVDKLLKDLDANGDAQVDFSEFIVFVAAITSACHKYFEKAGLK

[19] = target: S100A11 (Homo sapiens) (UniProt P31949); experiment: NMR
Sequence of S100A11 (Homo sapiens) (P31949 2-105): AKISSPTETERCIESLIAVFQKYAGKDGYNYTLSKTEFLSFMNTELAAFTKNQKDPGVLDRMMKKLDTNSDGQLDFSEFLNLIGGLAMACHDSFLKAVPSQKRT

[20] = target: Aβ42 Aβ42 (Homo sapiens) (UniProt P05067); experiment: MST
[21] = target: Aβ40 Aβ40 (Homo sapiens) (UniProt P05067); experiment: given as Ka
[22] = target: S100B (Homo sapiens) (UniProt P04271); experiment: ITC
[23] = target: RAGE V domain (Homo sapiens) (UniProt Q15109)
[24] = target: RAGE (Homo sapiens) (UniProt Q15109); experiment: SPR
[25] = target: RAGE 23-132 (Homo sapiens) (UniProt Q15109)
[26] = target: S100B (dimer) (Homo sapiens) (UniProt P04271); experiment: SPR
Sequence of S100B (dimer) (Homo sapiens) (P04271 2-92): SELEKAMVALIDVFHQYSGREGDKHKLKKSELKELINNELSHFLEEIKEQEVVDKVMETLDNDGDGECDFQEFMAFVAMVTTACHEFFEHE

[27] = target: Aβ17-42 Aβ17-42 (Homo sapiens) (UniProt P05067); experiment: MST
[28] = target: iso-Aβ42 Aβ42 (Homo sapiens) (UniProt P05067); experiment: MST
[29] = target: pS8-Aβ42 Aβ42 (Homo sapiens) (UniProt P05067); experiment: MST

Sequence of S100B (Homo sapiens) (P04271 2-92): as above
Sequence of fructose-BSA (AGE) (P02769 25-607): as the sequence (P02769 25-607) above
Sequence of glucose-BSA (AGE) (P02769 25-607): as above
Sequence of S100A5 (P33763 whole entry): as the sequence (P33763 whole entry) above
Sequence of S100A8 (P05109 whole entry): as the sequence (P05109 whole entry) above
Sequence of S100B (P04271 2-92): as the sequence (P04271 2-92) above
Sequence of S100A9 (P06702 whole entry): as the sequence (P06702 whole entry) above

Kd [1]: 57 nM
Substance: Amyloid-beta 1-40 Abeta 1-40 (from UniProt P05067)

Kd [2]: 10000 nM
Substance: Amyloid-beta 17-42 Abeta 17-42 (from UniProt P05067)

Kd [3]: 500 nM
Substance: RAGE 23-132 (from UniProt Q15109)

Kd [4]: 75 nM
Kd [5]: 57 nM
Kd [6]: 92 nM
Kd [7]: 70 nM
Kd [8]: 3.21 nM
Kd [9]: 19500 nM
Kd [10]: 13900 nM
Substance: RAGE (from UniProt Q15109)

Kd [11]: 1300 nM
Substance: RAGE C2 (from UniProt Q15109)

Kd [12]: 52.2 nM
Kd [13]: 600 nM
Kd [14]: 5900 nM
Kd [15]: 5600 nM
Kd [16]: 97.7 nM
Kd [17]: 3000 nM
Kd [18]: 6200 nM
Kd [19]: 2650 nM
Kd [20]: 1000 nM
Kd [21]: 625 nM
Substance: RAGE V domain (from UniProt Q15109)

Kd [22]: 3190 nM
Substance: RAGE VC1 (from UniProt Q15109)

Kd [23]: 5900 nM
Substance: S100A5 (from UniProt P33763)

Kd [24]: 70 nM
Substance: S100A8 (from UniProt P05109)

Kd [24]: 3.21 nM
Substance: S100A9 (from UniProt P06702)

Kd [25]: 500 nM
Substance: S100B (from UniProt P04271)

Kd [24]: 19500 nM
Substance: fructose-BSA (AGE) (from UniProt P02769)

Kd [24]: 13900 nM
Substance: glucose-BSA (AGE) (from UniProt P02769)

Kd [26]: 8300 nM
Kd [27]: 10000 nM
Kd [28]: 23000 nM
Kd [29]: 7000 nM
Substance: sRAGE ECD (from UniProt Q15109)
